# In patent US20240417462A1 (SHANGHAI CELGEN BIO PHARMACEUTICAL, published 2024):
# Positions count from the first letter of the chain named.
# T1: mouse TIGIT antigen (mouse, UniProt P86176 29-148, limits assumed)
# T1 construct: construct not described; also called murine TIGIT
# T1 sequence (looked up): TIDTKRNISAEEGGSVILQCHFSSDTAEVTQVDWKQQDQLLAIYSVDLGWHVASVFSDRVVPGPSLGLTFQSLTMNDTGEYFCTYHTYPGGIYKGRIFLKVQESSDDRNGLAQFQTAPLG
# T2: recombinant human TIGIT (Human TIGIT His, Sino Biological, 10917-H08H) (human, UniProt Q495A1 22-138)
# T2 construct: range 1-138; bought; also called hTIGIT
# T2 sequence (looked up): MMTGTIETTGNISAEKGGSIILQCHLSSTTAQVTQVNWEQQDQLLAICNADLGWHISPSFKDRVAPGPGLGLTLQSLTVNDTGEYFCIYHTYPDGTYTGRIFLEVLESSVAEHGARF
# T3: full-length human TIGIT expressed on CHO-K cell membrane (CHO-K-TIGIT) (human, UniProt Q495A1 22-244)
# T3 construct: whole, on cells; also called CHO-TIGIT; membrane TIGIT
# T3 sequence (looked up): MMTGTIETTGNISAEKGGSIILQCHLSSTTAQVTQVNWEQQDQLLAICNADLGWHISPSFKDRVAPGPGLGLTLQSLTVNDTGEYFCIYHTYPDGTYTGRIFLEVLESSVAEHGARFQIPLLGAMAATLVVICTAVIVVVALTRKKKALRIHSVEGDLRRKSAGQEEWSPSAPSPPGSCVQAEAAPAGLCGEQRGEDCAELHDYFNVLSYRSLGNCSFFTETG
# B1: anti-human TIGIT mouse monoclonal antibody 7103-02 (antibody, V domains shown)
# VH: EVQLQQSGPELVKPGASVKMSCKASGYTITSYVMHWVKQKPGQGLEWIGYINPYNDGTKYNEKFKGKATLTSDKSSSTAYMELSSLTSEDSAVYYCARWNPYYYAMDYWGQGTSVTVSS
# VL: EVVLTQSPAITAASLGQKVTITCSANSSARYVHWYQQKSGTSPKPWIYEISKLASGVPARFSGSGSGTSYSLTISSMGAEDAAIYYCQQWNYPLITFGAGTKLEIK
# notes: also called 37C6-1-1
# B2: anti-human TIGIT mouse monoclonal antibody 7103-08 (antibody, V domains shown)
# VH: EVQLQESGPELVKPGASVKISCKASGYSFTGYYMLWVKQSHVKSLEWIGRINPYNGATTYNQNFKDKASLTVNKSSSTAYMELHSLTSEDSAVYYCARWFGDFDFWGQGTTLTVSS
# VL: DIQMTQSPSSLSASLGERVSLTCRASQEISGYLSWLQQKPDGTIKRLIYATSTLDSGVPKRFSGSRSGSDYSLTISSLESEDFADYYCLQYASYPFTFGSGTKLEIK
# notes: also called 49F8-1-2
# B3: anti-human TIGIT mouse monoclonal antibody 7103-05 (antibody, V domains shown)
# VH: EVQLQQSGPALVKPGASVKISCKTSEYTFTEYTMYWVKQSHGKSLEWIGGINPNNGGTRYNQKFKGKATLTVDKSSSTAYMELRSLTSEDSAVYYCARGGHYDYGFAYWGQGTLVTVSA
# VL: DIVMTQSHKFMSTSVGDRVSITCKASQDVKTAVAWYQQKPGQSPKVLIYSPSYRYTGVPDRFTGSGSGTDFTFTISSVQAEDLAVYYCQQHYSTPWTFGGGTKLKSK
# notes: also called 41D7-2-1
# B4: humanized anti-human TIGIT monoclonal antibody P03477 (antibody, V domains shown)
# VH: EVQVVESGGGLVKPGGSLRLSCAASGFTFSTYAMSWVRQAPGKGLEWVAEISSGGSHTFYSDTVTGRFTISRDNAKNTLYLQMNSLRAEDTAVYYCARKTLDYYALDYWGQGTTVTVSS
# VL: DVQITQSPSSVSASVGDRVTINCRASKSISKYLAWYQQKPGKAPKLLIYSGSRLQSGVPSRFSGSGSGTDFTLTISSLQPEDFATYYCQQHNEYPWTFGGGTKLEIK
# B5: humanized anti-human TIGIT monoclonal antibody P03476 (antibody, V domains shown)
# VH: B4 VH
# VL: B4 VL with S10Y, V11L, V58I, S67Y
# B6: humanized anti-human TIGIT monoclonal antibody P03478 (antibody, V domains shown)
# VH: B4 VH
# VL: B4 VL with V2I, I4M, N22T
# B7: humanized anti-human TIGIT monoclonal antibody P03482 (antibody, V domains shown)
# VH: B4 VH with V4L, S61A
# VL: B4 VL with S10Y, V11L, V58I, S67Y
# B8: humanized anti-human TIGIT monoclonal antibody P03483 (antibody, V domains shown)
# VH: B4 VH with V4L, S61A
# VL: B4 VL
# B9: humanized anti-human TIGIT monoclonal antibody P03484 (antibody, V domains shown)
# VH: B4 VH with V4L, S61A
# VL: B4 VL with V2I, I4M, N22T
# B10: humanized anti-human TIGIT monoclonal antibody P03480 (antibody, V domains shown)
# VH: B4 VH with S61A, T65K
# VL: B4 VL
# B11: humanized anti-human TIGIT monoclonal antibody P03481 (antibody, V domains shown)
# VH: B4 VH with S61A, T65K
# VL: B4 VL with V2I, I4M, N22T
# B12: humanized anti-human TIGIT monoclonal antibody P03487 (antibody, V domains shown)
# VH: QVQLVQSGAEVKKPGASVKVSCKASGYTFISYNIYWVRQAPGQGLEWIGGVNPSNGNTNFNENFKSRVTLTVDKSISTAYMELSRLRSDDTAVYYCTRGNYYGYEFAYWGQGTTVTVSS
# VL: DIQMTQSPSSMSASVGDRVTITCKASQHVSTAVAWYQQKPGKAPKLLIYSPSYRYTGVPSRFSGSGSGTDFTFTISSVQPEDIATYYCQQHYSTPWTFGGGTKLEIK
# B13: humanized anti-human TIGIT monoclonal antibody P03486 (antibody, V domains shown)
# VH: B12 VH with V20L, V68A, I76S, Y95F
# VL: B12 VL
# B14: humanized anti-human TIGIT monoclonal antibody P03489 (antibody, V domains shown)
# VH: B12 VH with I48M, K65Q, S66G, L70M, K74T
# VL: B12 VL
# B15: humanized anti-human TIGIT monoclonal antibody P03488 (antibody, V domains shown)
# VH: B12 VH with S66G, K74T
# VL: B12 VL
# B16: humanized anti-human TIGIT monoclonal antibody P04664 (antibody, V domains shown)
# VH: B4 VH with G42E, K43Q, G44R
# VL: B4 VL with D17E, R18T, V19I
# Target: T1, mouse TIGIT antigen
# Assay: ELISA, coated mouse TIGIT
# Description: (§1) The cynomolgus monkey or mouse TIGIT antigen of was coated with the same method as above, the anti-human TIGIT mouse monoclonal antibody was diluted in gradient, and then the anti-mouse Fab secondary antibody was added (Jackson Immuno Research, 515-035-072) for TMB development. ELISA was used to detect the binding of 8 mouse monoclonal antibodies to recombinant cynomolgus monkey TIGIT.
row,binding result,Binder
1,no binding,B1
2,no binding,B2
3,no binding,B3

# Target: T2, recombinant human TIGIT (Human TIGIT …)
# Assay: ELISA, coated human TIGIT-His
row,EC50 [nM],Binder
1,0.0987,B1
2,0.194,B4
3,0.221,B5
4,0.161,B6
5,0.182,B7
6,0.212,B8
7,0.187,B9
8,0.252,B10
9,0.122,B11
10,0.532,B12
11,0.511,B13
12,0.0372,B2
13,0.0571,B3

# Target: T3, full-length human TIGIT expressed on …
# Assay: flow cytometry, CHO-TIGIT cells
row,EC50 [nM],Binder
1,1.74,B4
2,1.52,B5
3,2.58,B6
4,2.38,B7
5,2.61,B8
6,2.19,B10
7,2.82,B11
8,0.761,B14

# Target: T2, recombinant human TIGIT (Human TIGIT …)
# Assay: competition ELISA, coated TIGIT-His, CD155-Fc as competitor
# Description: In order to evaluate the competition between the anti-human TIGIT mouse monoclonal antibody and CD155 (Human CD155 (Fc Tag): Sino Biological, 10109-H02H) for binding to recombinant human TIGIT (Human TIGIT(His), Sino Biological, 10917-H08H), ELISA detection was performed, and the specific steps were as follows:
# Primary antibody incubation: the plate was washed twice with PBS (250 μl/well), and patched dry. 6 μg/ml of CD155 was respectively diluted in a binding solution and added into a 96-well dilution plate at 60 μl/well. Then the screened hybridoma antibody was diluted with the binding solution, (the highest concentration was 30 μg/ml), and diluted to 3 times of concentration, and added into the corresponding dilution plate above at 60 μl/well. After mixing well, the sample was added to the coated 96-well ELISA plate at 100 μl/well. The plate was sealed with a sealing film and placed at 37° C. for 1.5 hours.
# Secondary antibody incubation: the blocking solution was discarded, the plate was washed with 250 μl PBST for 3 times, and patched dry.
row,IC50 [nM],Binder
1,0.13,B1
2,0.0857,B2
3,0.169,B3

# Target: T2, recombinant human TIGIT (Human TIGIT …)
# Assay: competition ELISA on recombinant human TIGIT, CD155 as competitor
row,IC50 [nM],Binder
1,0.928,B4
2,1.32,B5
3,0.989,B6
4,0.791,B7
5,0.836,B8
6,1.29,B9
7,1.24,B10
8,0.62,B11

# Target: T2, recombinant human TIGIT (Human TIGIT …)
# Assay: BLI, antibody captured on anti-human Fc probe, TIGIT-His in solution
Kd [nM],koff [s⁻¹],kon [M⁻¹ s⁻¹],Binder
1.43,0.000804,562000,B12
1.14,0.000584,511000,B13
1.02,0.000519,511000,B15
1.19,0.000584,489000,B14

# Target: T2, recombinant human TIGIT (Human TIGIT …)
# Assay: as above
# Remark: another data set of the same source
Kd [nM],koff [s⁻¹],kon [M⁻¹ s⁻¹],Binder
5.95,0.00291,490000,B4
7.92,0.00483,610000,B5
10.1,0.00714,707000,B6
6.15,0.00406,661000,B7
2.73,0.00391,1.43e+06,B16
7.77,0.0046,592000,B8
9.15,0.00639,699000,B9
6.67,0.00404,605000,B10
10,0.00666,665000,B11

# Target: T2, recombinant human TIGIT (Human TIGIT …)
# Assay: ELISA, recombinant human TIGIT (His) coated, anti-human-Fc-AP, OD405/490
# Description: Antigen hTIGIT (Human TIGIT (His), Sino Biological, 10917-H08H) was diluted into 1 μg/mL with a NaHCO₃ solution of pH 9.6, 50 μl per well was added to a 96-well ELISA plate, and placed overnight in refrigerator at 4° C.
# In order to determine whether the humanized TIGIT monoclonal antibody of the present disclosure could bind to the recombinant human TIGIT protein, in vitro testing was performed. Murine antibodies and Tiragolumab (Tira) were used as positive controls. The experimental method was the same as in Example 3.1.
row,EC50 [µg/mL],Binder
1,0.0794,B12
2,0.0763,B13

# Target: T4, recombinant cynomolgus monkey TIGIT (cynomolgus monkey, UniProt A0A7N9I9V4 89-209)
# T4 construct: construct not described; also called cynomolgus TIGIT
# T4 sequence (A0A7N9I9V4 entry or part of it): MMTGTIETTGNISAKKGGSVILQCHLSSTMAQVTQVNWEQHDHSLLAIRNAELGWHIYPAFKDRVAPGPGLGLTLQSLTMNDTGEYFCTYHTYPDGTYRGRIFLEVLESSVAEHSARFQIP
# Assay: ELISA, recombinant cynomolgus TIGIT coated, anti-mouse Fab secondary antibody, TMB, OD450/655nm
# Description: as §1
row,binding result,Binder
1,no binding,B1
2,no binding,B2
3,no binding,B3
